Data reported in the supplement of paper PMC9112550, “Optimization of the antimicrobial peptide Bac7 by deep mutational scanning” (BMC Biology, 2022).

These sequences were tested on Escherichia coli TOP10 (assay: shrunken log2 fold change of peptide-encoding DNA abundance (4.5 h post-induction vs induction); higher = less antimicrobial activity (less host growth inhibition)). Conditions: time post-induction: 4.5 h; library: site-saturation at positions 5, 18, 19, 20.
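Also: peptides expressed intracellularly from a pBAD plasmid library in pooled LB shake-flask culture, induced with 0.3% L-arabinose, DNA abundance read by NGS, three biological replicates, DESeq2 with apeglm shrinkage.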

| Sequence | shrunken log2 fold change |
| --- | --- |
| RRIRFRPPRLPRPRPRPCMIPRP | -0.118 |
| RRIRPRPPRLPRPRPRPKKGPRP | -0.0676 |
| RRIRPRPPRLPRPRPRPDKEPRP | -0.0375 |
| RRIRTRPPRLPRPRPRPQGWPRP | 0.704 |
| RRIRSRPPRLPRPRPRPQYAPRP | -0.282 |
| RRIRFRPPRLPRPRPRPQQSPRP | -0.0219 |
| RRIRDRPPRLPRPRPRPDKRPRP | 0.00902 |
| RRIRKRPPRLPRPRPRPPTDPRP | 0.544 |
| RRIRPRPPRLPRPRPRPTFEPRP | 0.035 |
| RRIRIRPPRLPRPRPRPFMDPRP | -1.07 |
| RRIRARPPRLPRPRPRPVDSPRP | -0.0786 |
| RRIRWRPPRLPRPRPRPTWLPRP | 0.694 |
| RRIRCRPPRLPRPRPRPVTMPRP | -0.49 |
| RRIRKRPPRLPRPRPRPCTQPRP | -0.0701 |
| RRIRHRPPRLPRPRPRPALPPRP | 0.0229 |
| RRIRTRPPRLPRPRPRPHIVPRP | -0.102 |
| RRIRARPPRLPRPRPRPMCNPRP | 0.186 |
| RRIRKRPPRLPRPRPRPRAEPRP | 0.632 |
| RRIRCRPPRLPRPRPRPMDQPRP | 0.337 |
| RRIRARPPRLPRPRPRPHCPPRP | -0.0475 |
| RRIRYRPPRLPRPRPRPIAVPRP | -0.321 |
| RRIRTRPPRLPRPRPRPASLPRP | 0.105 |
| RRIRCRPPRLPRPRPRPQMHPRP | -0.27 |
| RRIRGRPPRLPRPRPRPVCKPRP | 0.124 |
| RRIRDRPPRLPRPRPRPYLAPRP | -0.0552 |

| Sequence | shrunken log2 fold change |
| --- | --- |
| RRIRTRPPRLPRPRPRPINPPRP | -0.0274 |
| RRIRPRPPRLPRPRPRPPTRPRP | 0.683 |
| RRIRMRPPRLPRPRPRPSWMPRP | -0.0767 |
| RRIRARPPRLPRPRPRPLQTPRP | 0.0966 |
| RRIRIRPPRLPRPRPRPQAKPRP | 0.2 |
| RRIRYRPPRLPRPRPRPMNHPRP | -0.262 |
| RRIRPRPPRLPRPRPRPSQVPRP | -0.645 |
| RRIRPRPPRLPRPRPRPPGEPRP | 0.00468 |
| RRIRSRPPRLPRPRPRPFRPPRP | -0.249 |
| RRIRERPPRLPRPRPRPANPPRP | -0.0315 |
| RRIRVRPPRLPRPRPRPPDNPRP | -0.00642 |
| RRIRYRPPRLPRPRPRPGKFPRP | -0.0427 |
| RRIRGRPPRLPRPRPRPVYDPRP | 0.32 |
| RRIRHRPPRLPRPRPRPARVPRP | 0.502 |
| RRIRMRPPRLPRPRPRPAVWPRP | 1.08 |
| RRIRHRPPRLPRPRPRPKDVPRP | 0.0703 |
| RRIRGRPPRLPRPRPRPYFAPRP | 0.357 |
| RRIRHRPPRLPRPRPRPKPRPRP | 0.177 |
| RRIRYRPPRLPRPRPRPGWQPRP | 0.015 |
| RRIRFRPPRLPRPRPRPMLDPRP | -0.365 |
| RRIRWRPPRLPRPRPRPIYPPRP | -0.0275 |
| RRIRYRPPRLPRPRPRPGLDPRP | -0.188 |
| RRIRDRPPRLPRPRPRPRMAPRP | 0.465 |
| RRIRPRPPRLPRPRPRPICKPRP | -0.081 |
| RRIRSRPPRLPRPRPRPALPPRP | 0.26 |

| Sequence | shrunken log2 fold change |
| --- | --- |
| RRIRWRPPRLPRPRPRPNCSPRP | -0.162 |
| RRIRERPPRLPRPRPRPKCNPRP | 0.0249 |
| RRIRRRPPRLPRPRPRPELNPRP | 0.312 |
| RRIRARPPRLPRPRPRPYGCPRP | -0.55 |
| RRIRIRPPRLPRPRPRPIPDPRP | -1.08 |
| RRIRRRPPRLPRPRPRPMFWPRP | 0.506 |
| RRIRQRPPRLPRPRPRPSIKPRP | -0.425 |
| RRIRCRPPRLPRPRPRPNKHPRP | -0.541 |
| RRIRSRPPRLPRPRPRPDLIPRP | -0.00967 |
| RRIRMRPPRLPRPRPRPTRCPRP | 0.863 |
| RRIRARPPRLPRPRPRPICYPRP | -0.0212 |
| RRIRTRPPRLPRPRPRPHTVPRP | -0.244 |
| RRIRYRPPRLPRPRPRPLKWPRP | -0.258 |
| RRIRHRPPRLPRPRPRPMYMPRP | -0.369 |
| RRIRFRPPRLPRPRPRPVRHPRP | 0.0636 |
| RRIRMRPPRLPRPRPRPYEAPRP | 0.029 |
| RRIRTRPPRLPRPRPRPRRAPRP | 0.523 |
| RRIRRRPPRLPRPRPRPWRAPRP | 0.181 |
| RRIRSRPPRLPRPRPRPVVAPRP | 0.608 |
| RRIRKRPPRLPRPRPRPWVIPRP | -0.182 |
| RRIRERPPRLPRPRPRPYHDPRP | -0.114 |
| RRIRIRPPRLPRPRPRPTCEPRP | -0.132 |
| RRIRCRPPRLPRPRPRPTKIPRP | 0.0473 |
| RRIRYRPPRLPRPRPRPGQGPRP | -0.0311 |
| RRIRQRPPRLPRPRPRPCWPPRP | 0.193 |

| Sequence | shrunken log2 fold change |
| --- | --- |
| RRIRFRPPRLPRPRPRPEFSPRP | 0.0686 |
| RRIRIRPPRLPRPRPRPKYIPRP | -0.992 |
| RRIRQRPPRLPRPRPRPFETPRP | -0.232 |
| RRIRSRPPRLPRPRPRPASDPRP | 0.407 |
| RRIRKRPPRLPRPRPRPQWCPRP | 0.149 |
| RRIRPRPPRLPRPRPRPHQKPRP | -0.0717 |
| RRIRIRPPRLPRPRPRPEPQPRP | -0.0904 |
| RRIRMRPPRLPRPRPRPNDWPRP | 0.435 |
| RRIRRRPPRLPRPRPRPATRPRP | 0.226 |
| RRIRERPPRLPRPRPRPPAYPRP | -0.173 |
| RRIRQRPPRLPRPRPRPSAAPRP | 0.486 |
| RRIRRRPPRLPRPRPRPVKSPRP | 0.625 |
| RRIRRRPPRLPRPRPRPTCKPRP | 0.0874 |
| RRIRYRPPRLPRPRPRPDMAPRP | -0.255 |
| RRIRERPPRLPRPRPRPYWAPRP | -0.888 |
| RRIRERPPRLPRPRPRPCQKPRP | -0.0135 |
| RRIRNRPPRLPRPRPRPQAPPRP | 0.31 |
| RRIRQRPPRLPRPRPRPRVEPRP | -0.0308 |
| RRIRKRPPRLPRPRPRPESFPRP | 0.0651 |
| RRIRARPPRLPRPRPRPYCFPRP | -0.178 |
| RRIRSRPPRLPRPRPRPSLYPRP | -0.432 |
| RRIRWRPPRLPRPRPRPHNGPRP | -0.349 |
| RRIRKRPPRLPRPRPRPNAGPRP | -0.00783 |
| RRIRWRPPRLPRPRPRPPTNPRP | 0.433 |
| RRIRRRPPRLPRPRPRPFNAPRP | -0.0138 |

| Sequence | shrunken log2 fold change |
| --- | --- |
| RRIRFRPPRLPRPRPRPRWRPRP | 0.382 |
| RRIRWRPPRLPRPRPRPTAFPRP | 0.276 |
| RRIRHRPPRLPRPRPRPVWLPRP | -0.0368 |
| RRIRCRPPRLPRPRPRPHQWPRP | 0.321 |
| RRIRDRPPRLPRPRPRPVAPPRP | 0.445 |
| RRIRHRPPRLPRPRPRPFMTPRP | -0.188 |
| RRIRRRPPRLPRPRPRPYVNPRP | -0.0793 |
| RRIRTRPPRLPRPRPRPLHLPRP | 0.053 |
| RRIRARPPRLPRPRPRPRCAPRP | 0.716 |
| RRIRVRPPRLPRPRPRPNQQPRP | 0.0476 |
| RRIRRRPPRLPRPRPRPACMPRP | 0.479 |
| RRIRLRPPRLPRPRPRPAEEPRP | 0.133 |
| RRIRIRPPRLPRPRPRPHALPRP | -0.127 |
| RRIRRRPPRLPRPRPRPFYLPRP | -0.226 |
| RRIRWRPPRLPRPRPRPHFSPRP | -0.205 |
| RRIRFRPPRLPRPRPRPQFGPRP | -0.0484 |
| RRIRTRPPRLPRPRPRPQKYPRP | -0.263 |
| RRIRARPPRLPRPRPRPYQNPRP | -0.559 |
| RRIRHRPPRLPRPRPRPICKPRP | -0.204 |
| RRIRYRPPRLPRPRPRPFWAPRP | -0.306 |
| RRIRMRPPRLPRPRPRPKERPRP | 0.0219 |
| RRIRRRPPRLPRPRPRPQALPRP | 0.128 |
| RRIRMRPPRLPRPRPRPVIPPRP | -0.259 |
| RRIRPRPPRLPRPRPRPFCKPRP | -0.511 |
| RRIRTRPPRLPRPRPRPQNVPRP | 0.0194 |

| Sequence | shrunken log2 fold change |
| --- | --- |
| RRIRCRPPRLPRPRPRPESDPRP | 0.242 |
| RRIRDRPPRLPRPRPRPMRAPRP | 0.953 |
| RRIRYRPPRLPRPRPRPKQAPRP | 0.0341 |
| RRIRRRPPRLPRPRPRPPGHPRP | 0.507 |
| RRIRVRPPRLPRPRPRPWMNPRP | -0.00133 |
| RRIRKRPPRLPRPRPRPDLGPRP | 0.0986 |
| RRIRRRPPRLPRPRPRPNEDPRP | 0.352 |
| RRIRPRPPRLPRPRPRPWWVPRP | 0.0961 |
| RRIRIRPPRLPRPRPRPIRKPRP | -0.0303 |
| RRIRRRPPRLPRPRPRPLWEPRP | 0.378 |
| RRIRIRPPRLPRPRPRPRQCPRP | -0.127 |
| RRIRNRPPRLPRPRPRPNFMPRP | -0.269 |
| RRIRDRPPRLPRPRPRPSYGPRP | -0.0489 |
| RRIRLRPPRLPRPRPRPDLRPRP | -0.0717 |
| RRIRCRPPRLPRPRPRPFFIPRP | -0.484 |
| RRIRERPPRLPRPRPRPNYAPRP | -0.0181 |
| RRIRFRPPRLPRPRPRPDANPRP | -0.138 |
| RRIRPRPPRLPRPRPRPMLQPRP | -0.105 |
| RRIRARPPRLPRPRPRPSQWPRP | 0.24 |
| RRIRPRPPRLPRPRPRPKCNPRP | -0.125 |
| RRIRARPPRLPRPRPRPLTLPRP | 0.0472 |
| RRIRSRPPRLPRPRPRPNQAPRP | -0.169 |
| RRIRHRPPRLPRPRPRPYQTPRP | -0.112 |
| RRIRFRPPRLPRPRPRPFLDPRP | -0.169 |
| RRIRPRPPRLPRPRPRPTFHPRP | 0.0667 |
